Source: PMC3489985 (Analytical biochemistry, 2012)

Experiments:
[1] = test system: O=[N+]([O-])c1ccc(Cl)c(Cl)c1; experiment: spectrophotometric enzyme kinetics; format: biochemical, Culex pipiens; conditions: 30.0 °C
[2] = molecular target: CpGSTD1 (Culex pipiens, UniProt H9M8E3); experiment: spectrophotometric enzyme kinetics; format: biochemical
[3] = substrate: Cc1cc(=O)oc2ccc(OC(=O)[C@H]3[C@@H](C=C(Cl)Cl)C3(C)C)cc12; experiment: fluorescent enzyme kinetics; format: biochemical, Culex pipiens; conditions: GSH; 30.0 °C
[4] = substrate: Cc1cc(=O)oc2ccc(OC(=O)[C@H]3[C@@H](/C=C(\Cl)C(F)(F)F)C3(C)C)cc12; experiment: fluorescent enzyme kinetics; format: biochemical, Culex pipiens; conditions: GSH; 30.0 °C

CpGSTD1 (Culex pipiens)
Km [1]: 691 ± 106 µM | Vmax [1]: 2.32 ± 0.152 µmol/min/mg | kcat [1]: 0.92 s⁻¹ | kcat/Km [1]: 1300 M⁻¹ s⁻¹

O=[N+]([O-])c1ccc(Cl)c([N+](=O)[O-])c1 [CDNB, 1-chloro-2,4-dinitrobenzene]
Km [2]: 240 ± 18 µM

B1: CpGSTD1 (Culex pipiens) (protein)
chain: MDFYYLPGSAPCRAVQMTAAAVGVELNLKLTNLMAGEHMKPEFLKLNPQHTIPTLVDNGFSLWESRAIQIYLVEKYGKDDSLYPKDPQKRALVNQRLFFDMGVFYQRFGDYWYPQIFAKQPANADNEKKMQEAVAFLNTFLEGHQYAAGDQLTIADLSLAASAATYEVAGFDFSKYPNVQAWLERCKKNAPGYDLNQAGADEFNAKFLGGK
Km [3]: 9.0 ± 0.8 µM | Vmax [3]: 0.298 µmol/min/mg | kcat [3]: 0.12 s⁻¹ | kcat/Km [3]: 13000 M⁻¹ s⁻¹ | Km [4]: 10.0 ± 0.7 µM | Vmax [4]: 0.487 µmol/min/mg | kcat [4]: 0.19 s⁻¹ | kcat/Km [4]: 19000 M⁻¹ s⁻¹
